Results on 30 sequences are retold here after the nanobody polyreactivity screen of Harvey et al. (2022).

The data set is described as follows: yeast display, Sf9 membrane polyspecificity reagent, FACS + sequencing; frameworks hold sequencing errors. The procedure, abridged:
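Polyreactivity labels are assigned by the sorting gate from which each nanobody was recovered. The gates were low and high (top ~1%), set on anti-HA fluorescence for expression and streptavidin fluorescence for reagent binding. Before sorting, galactose-induced (36–48 hours) yeast display cells were stained for 1 hour at 4 °C with 10% biotinylated, detergent-solubilized Sf9 membrane reagent.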
“QVQLVESGGGLVQAGGSLRLSCDASGFIFYEYAMGWSRQAPGKEREFVAAISRSGTRTYYADSVKGRFTISRDNAKNTVYLQMNSLKPEDTAVYYCAAAYYGYARWRGPRKMDYWGQGTQVTVSS”: the “polyreactivity (PSR sort gate)” value is reported as “high polyreactivity”.
Under “QVQLVESGGGLVQAGGSLRLSCDASGFTFDDYAMGWYRQAHGNEMELVAAISSSRDSTYNADSVKGRFTISRDYEKNTVYLQINSLKPQDTAVYYCAAEYDREEYSGYDYWGEGTQVTVSS” stands “low polyreactivity”; under “QVQLVESGGGLVQAGGSLRLSCDASGFTFHPYTMGWYRQAPGKERELVASISWGGGSTYYADSVKGRFTISRDNAKNTVYLQMKSLNPEDTAVYYCAKDITYIYYYWGQGSQVTVSS”, “low polyreactivity”; under “QVQLVESGGGLVQAGGSLRLSCDASGFTFSAYAMGWYRQAPGKERELVAAISTRGGSTRYADSVKGRFTISRDNAKNTVYLQMNSLKPEDTAVYYCADDTRSFYRYDYWGQGTQVTVSS”, “high polyreactivity”.
Under “QVQLVESGGGLVQAGGSLRLSCDASGFTFVDYTMGWYRQAPGKERELVAAISRRGGSTYYADSVKGRFTISRANSKNTVYLQLNSLQQADTAVYYCNAYRRNYYYYQRHGYWGQCTQVTVSS” stands “high polyreactivity”; under “QVQLVESGGGLVQAGGSLRLSCDASGFTIYHYAIGCYRQATGKERELVDANSRSGGSTYYADSVKGRFTISRDNAQNTFYLQMNSLKPEDTAVYYCAKVLRAKNSFDYWGQGTQVTVSS”, “high polyreactivity”.
To “QVQLVESGGGLVQAGGSLRLSCDASGNTFGSYAMGWYGQAPGKEREVVASISGGGSTNYADSVKGRFTISRDNATNTVYLQMNSLKPEDTAVYDCAPRYYYRYYWRQGTQVTVSS” belongs “low polyreactivity”.
With “QVQLVESGGGLVQAGGSLRLSCDASGRIFASNAMGWYRQAPGKERELVATIRRSGGSTYYADSVKGRFTISRDNAKNTVYLQMNSLKPEDTAVYYCNARMYGGYGWIYDYWRQGTQVTVSS”, the “polyreactivity (PSR sort gate)” value is given as “high polyreactivity”.
To “QVQLVESGGGLVQAGGSLRLSCDASGRIFRKNAMGWYRQAPGKERELVAAISGGGGSTYYADSVKGRFTISRDNAKNTVYLQMNSLKPEDTADYYCNAPILPGYWGQGTQVTVSS” belongs “high polyreactivity”; to “QVQLVESGGGLVQAGGSLRLSCDASGRIFRYYAMGWYRQAPGKERELVAAISSDGSTDYADSVKGRFTISRDNAKNTVYLQMNSLKPEDTAVYYCAASVVSYGHDYWGQGTQVTVSS”, “low polyreactivity”.
For “QVQLVESGGGLVQAGGSLRLSCDASGRIFSRYAIGWYRQAPGKERELVAAITQSGTSTYYADSVKGRFTISRDNAKNTVYLQMNSLNPEDTAVYYCNAYRQYRYDYWGQGTQVTVSS”, the “polyreactivity (PSR sort gate)” value is listed as “low polyreactivity”.
To “QVQLVESGGGLVQAGGSLRLSCDASGRIFSVYAMGWYRQEPGKEREFVSAISRGGSTNYADSVNGRFTISRDNAKYTVYLQKNSLKPEDTAVYYWGASSLPNYYYRHYYLYEYWGQGTQVTVSS” belongs “low polyreactivity”; to “QVQLVESGGGLVQAGGSLRLSCDASGRIIAFYVMGWYRQAPGKERELVAAITSGGNTNYADSVKGRFTISRDNAKNTVYLQMNSLKPEDTAVYYCAVPVLTYVSDYYWGQGTQVTVSS”, “low polyreactivity”.
Under “QVQLVESGGGLVQAGGSLRLSCDASGRTFAYYAMGWYRQAPGKERELVAAISNGGSTYYADSVKGRFTISRDNAKNTVYLQMNRLKPEDTSVYYCNAYYSDLYDYWGQGTQVTVSS” stands “low polyreactivity”; under “QVQLVESGGGLVQAGGSLRLSCDASGRTFGHKAMAWYRQAPGKEREFVAAITYSCVRTFYADSVKGRFTISRDNAKNTVYLQMNSLKQEDTAVYYCATDWRRDYDFWGQGTQVTVSS”, “low polyreactivity”; under “QVQLVESGGGLVQAGGSLRLSCDASGRTFRFNDGGWYRQAPVKERELVAAITYRGGSTYYPDSVKGRFTISRDNAKNTVYLQMNSLKPDDTAVYYCAADYFWSRTQEFDYWGQGSQVTVSS”, “high polyreactivity”.
Under “QVQLVESGGGLVQAGGSLRLSCDASGRTFRYYAMGWYRQAPGKEREMVAAITRSGGSTYYADSVKGRFTISRDNAKNTVYLQMNSLKAVDTAVYYCAESRFYSYGIDYDYWGQGTQVTVSS” stands “high polyreactivity”.
On to “QVQLVESGGGLVQAGGSLRLSCDASGSIFDPYAMGWYRQAPGKERELVAGISFSGGRTYYADSVKGRFTISRDNAKNTVYLQMNSLKPEDTAVYYCKKLLTQGAYPYYYWGQGTQVTVSS”, for which the “polyreactivity (PSR sort gate)” value is listed as “high polyreactivity”.
Under “QVQLVESGGGLVQAGGSLRLSCDASGSIFIANAMGWYRQAPGKEREFVAAINWSRGSTYYADSVKGRFTISRDNAKNTVYLQMNSLKPEDTAVYYCNAASLKFTSPVRFGYWGQGTQVTVSS” stands “high polyreactivity”; under “QVQLVESGGGLVQAGGSLRLSCDASGSIFKYYAMGWYRQAPGKEREWVAAITIGGNTNYADSVKGRFTISRDNAKNTVYLQMNSLKPEDTAVYYCATGGYYSAIVYGGYDYWGQGTQVTVSS”, “low polyreactivity”.
In the case of “QVQLVESGGGLVQAGGSLRLSCDASGSIIRYYAMGWYRQAPGKERELVAAINSLGGTTYYADSVKGRFTISRDNAKNTVYLQMNSLKPEDTAVYYCAAGYPPLHTSVQQTAHYGLDYCGQGTQVTVSS”, the “polyreactivity (PSR sort gate)” value is “high polyreactivity”.
To “QVQLVESGGGLVQAGGSLRLSCDASGSNFFYARGWSRQAPGRERELVADITYTGGSKYADSVKGRFTISRDNAKNTVDLQLNILKPEDTAVSYCAKLDGGLFDYWGQGTQVNVSS” belongs “low polyreactivity”.
To “QVQLVESGGGLVQAGGSLRLSCDASGSTFDNYAMGWYRQAPGKERELVAAITTGVTTYYADSVKGRFTISRDNAKNTVYLQMNSLKPEDTAVYYCAADYVSYSQARHEYGYWGQGTQVTVSS” belongs “low polyreactivity”; to “QVQLVESGGGLVQAGGSLRLSCDASGSTFDQYVMGWYRQAPWKERELVAAISVSGGRTYYADSVKGRFTISRDNAKNTVYLQMKSLKPDDTAVYYCNAPKRYSSIGYDYWGQGTQVTVSS”, “high polyreactivity”.
To “QVQLVESGGGLVQAGGSLRLSCDASGSTFDYYAMGWYRQAPGKERELVAGIDSAGSTNYADSVKGRFTISRDNAKNTVYLQMNSLKTGRYRGLYCNVGKTITTYAFPTFDYCGQGTQVTVSS” belongs “low polyreactivity”; to “QVQLVESGGGLVQAGGSLRLSCDASGSTFRGYAMGWYRPAPGKERELVAAITSDGSTNYADSEKGRFTISRDNAKNTVYLQMNSLKPEDTAVYYCNVKATRKWWDRRVYRYNYWGQGTQVTVSS”, “high polyreactivity”.
With “QVQLVESGGGLVQAGGSLRLSCDASGSTFRGYAMGWYRQAPGKERDLVAAISRYGGSTYYADSVKGRFTISRDNAKTTVYIQMNSLKPEDTAGYYCNARSSKRSSRGYDYWGQGTQVTVSS”, the “polyreactivity (PSR sort gate)” value is “high polyreactivity”.
To “QVQLVESGGGLVQAGGSLRLSCDASGSTFSPYAMRWYRQAPGKERELVAAINYSSGSTYYADSVKGRFTISRDNAKNTVYLQMNSLKPEDTAVYYCAYGWYAGYPYDYWGQGTQVTVSS” belongs “low polyreactivity”; to “QVQLVESGGGLVQAGGSLRLSCDASGSTFYRNVIGWYRQAPGKERELVAAISSGGSTYYADSVKGRFTISRDNAKNTVYFQMNSLKPEDTAVYYCAARKRYSYDYWGQGTQVTVSS”, “low polyreactivity”; to “QVQLVESGGGLVQAGGSLRLSCDASGSTFYWYAMGWYRQAPGKERELVAAITYSSGRTYYADSVKGRFTISRDNAKNTVYLQMNSLKPEDTAVYYCGWSALNGYDYWGQGTQVTVSS”, “high polyreactivity”.
